Source: article PMC8690919 (Theranostics, 2022)

B1: FI-3A Fab (Fab, V domains shown)
VH: EVQLLESGGGLIQPGGSLRLSCAASGFTVSSNYMSWVRQAPGKGLEWVSVIYSGGSTYYADSVKGRFTISRDNSKNTLYLQMNSLRAEDTAVYYCARDHVRPGMNIWGQGTMVTVSS
VL: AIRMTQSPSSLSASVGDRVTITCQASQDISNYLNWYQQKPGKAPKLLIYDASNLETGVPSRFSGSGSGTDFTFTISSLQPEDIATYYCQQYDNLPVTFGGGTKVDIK
B2: FD-5D Fab (Fab, V domains shown)
VH: EVQLVESGGGLVQPGGSLRLSCAASGFTFSSYSMNWVRQAPGKGLEWVSYISSSSSTIYYADSVKGRFTISRDNAKNSLYLQMNSLRAEDTAVYYCASPGGITAAGTSVLFGYYGMDVWGQGTTVTVSS
VL: not shown
B3: FD-11A Fab (Fab, V domains shown)
VH: EVQLVESGGGVVQPGRSLRLSCAASGFTFSSYGMHWVRQAPGKGLEWVAVIWYDGSNKYYADSVKGRFTISRDNSKNTLYLQMNSLRAEDTAVYYCAKGPDILTGYYNYYYYGMDVWGQGTMVTVSS
VL: QSVLTQPPSVSGAPGQRVTISCTGSSSNIGAGYDVHWYQQLPGTAPKLLIYGNSNRPSGVPDRFSGSKSGTSASLAITGLQAEDEADYYCQSYDSSLSGFYVVFGGGTKLTVL

Each binder was assayed against T1, SARS-CoV-2 receptor-binding domain (RBD), His-tagged (SARS-CoV-2, UniProt P0DTC2) (assay: crystal structure). Settings: both partners purified.
T1 construct: also called viral RBD; His-tagged RBD

Question: Does B1 bind?
Answer: binds

Question: Does B2 bind?
Answer: binds

Question: Does B3 bind?
Answer: binds
